In paper PMC9848473:

Target: Bacillus subtilis Rel N-terminal domain region (RelBs^NTD; residues 1 to 373) (B. subtilis)
Test: ITC; DarB or DarB variant (200 uM) in the syringe titrated into RelBs^NTD or variant (15 uM) in the cell; 25 °C; 50 mM Hepes pH 7.5, 500 mM KCl, 500 mM NaCl, 10 mM MgCl2, 1 mM TCEP, 0.002% mellitic acid

Binder | Kd [µM]
Bacillus subtilis DarB E34R (natural protein) MISLQSDQLLEATVGQFMIEADKVAHVQVGNNLRHALLVLTKTGYTAIPVLDPSYRLHGLIGTNMIMNSIFGLERIEFEKLDQITVEEVMLTDIPRLHINDPIMKGFGMVINNGFVCVENDEQVFEGIFTRRVVLKELNKHIRSLNK | 10.6
Bacillus subtilis DarB E74G/R75G (natural protein) MISLQSDQLLEATVGQFMIEADKVAHVQVGNNLEHALLVLTKTGYTAIPVLDPSYRLHGLIGTNMIMNSIFGLGGIEFEKLDQITVEEVMLTDIPRLHINDPIMKGFGMVINNGFVCVENDEQVFEGIFTRRVVLKELNKHIRSLNK | 8.9
